Assay results from patent US20210275644A1 (OCTAPHARMA, published 2021).

T1: Recombinant SIG-5 Fc-fusion protein (R&D Systems) (human, UniProt O15389 17-434, limits assumed)
T1 construct: Bought from R&D Systems; Held on the plate by protein A; also called SIGLEC 5; not shown: Fc part of the bought fusion protein
T1 sequence (looked up): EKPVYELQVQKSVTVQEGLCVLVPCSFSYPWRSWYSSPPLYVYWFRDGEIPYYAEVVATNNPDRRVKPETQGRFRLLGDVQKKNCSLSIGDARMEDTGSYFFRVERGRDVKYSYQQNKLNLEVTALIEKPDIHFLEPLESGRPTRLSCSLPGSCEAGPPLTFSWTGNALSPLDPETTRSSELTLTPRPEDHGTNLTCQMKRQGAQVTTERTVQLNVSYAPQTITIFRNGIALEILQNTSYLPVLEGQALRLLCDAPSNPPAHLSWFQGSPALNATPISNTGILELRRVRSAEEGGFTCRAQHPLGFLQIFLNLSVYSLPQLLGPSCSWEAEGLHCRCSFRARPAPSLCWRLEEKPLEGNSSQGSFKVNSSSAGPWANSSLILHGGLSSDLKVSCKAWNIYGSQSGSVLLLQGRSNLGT

B1: Cluster 1 fragment (tryptic glycopeptide of plasma derived vWF, AA 449 to 511) (peptide)
peptide: VTLNPSDPEHC(Maleimide‑PEG2‑Biotin)QIC(Maleimide‑PEG2‑Biotin)HC(Maleimide‑PEG2‑Biotin)DVVNLTC(Maleimide‑PEG2‑Biotin)EAC(Maleimide‑PEG2‑Biotin)QEPGGLVVPPTDAPVSPTTLYVEDISEPPLHDFYC(Maleimide‑PEG2‑Biotin)SR
modifications: also: natural O-glycans (sialylated core 2), sites not given here
notes: also called Cluster I; O-glycosylation Cluster I
B2: Recombinant SIG-10 Fc-fusion protein (R&D Systems) (Fc fusion, human, UniProt Q96LC7 17-546, looked up)
chain: MDGRFWIRVQESVMVPEGLCISVPCSFSYPRQDWTGSTPAYGYWFKAVTETTKGAPVATNHQSREVEMSTRGRFQLTGDPAKGNCSLVIRDAQMQDESQYFFRVERGSYVRYNFMNDGFFLKVTALTQKPDVYIPETLEPGQPVTVICVFNWAFEECPPPSFSWTGAALSSQGTKPTTSHFSVLSFTPRPQDHNTDLTCHVDFSRKGVSAQRTVRLRVAYAPRDLVISISRDNTPALEPQPQGNVPYLEAQKGQFLRLLCAADSQPPATLSWVLQNRVLSSSHPWGPRPLGLELPGVKAGDSGRYTCRAENRLGSQQRALDLSVQYPPENLRVMVSQANRTVLENLGNGTSLPVLEGQSLCLVCVTHSSPPARLSWTQRGQVLSPSQPSDPGVLELPRVQVEHEGEFTCHARHPLGSQHVSLSLSVHYSPKLLGPSCSWEAEGLHCSCSSQASPAPSLRWWLGEELLEGNSSQDSFEVTPSSAGPWANSSLSLHGGLSSGLRLRCEAWNVHGAQSGSILQLPDKKGLIST
notes: Bought from R&D Systems; Held on the plate by protein A; not shown: Fc part of the bought fusion protein
B3: Recombinant SIG-F (mouse equivalent of human SIG-8) Fc-fusion protein (R&D Systems) (Fc fusion)
chain: TDGYSLSVTGSVTVQEGLCVFVACQVQYPNSKGPVFGYWFREGANIFSGSPVATNDPQRSVLKEAQGRFYLMGKENSHNCSLDIRDAQKIDTGTYFFRLDGSVKYSFQKSMLSVLVIALTEVPNIQVTSTLVSGNSTKLLCSVPWACEQGTPPIFSWMSSALTSLGHRTTLSSELNLTPRPQDNGTNLTCQVNLPGTGVTVERTQQLSVIYAPQKMTIRVSWGDDTGTKVLQSGASLQIQEGESLSLVCMADSNPPAVLSWERPTQKPFQLSTPAELQLPRAELEDQGKYICQAQNSQGAQTASVSLSIRSLLQLLGPSCSFEGQGLHCSCSSRAWPAPSLRWRLGEGVLEGNSSNGSFTVKSSSAGQWANSSLILSMEFSSNHRLSCEAWSDNRVQRATILLVSGPKVSQAGKSETSRGTVL
notes: Bought from R&D Systems; not shown: Fc part of the bought fusion protein

Legend:
[1] = target: T1, Recombinant SIG-5 Fc-fusion protein …; assay: ELISA: SIGLEC-Fc captured on a protein A plate (500 ng/well), biotinylated cluster fragment at 4 µg/mL, streptavidin-HRP, A492, single concentration
[2] = target: T2, Recombinant SIG-7 Fc-fusion protein (R&D Systems) (human, UniProt Q9Y286 19-357, limits assumed); assay: as above
T2 construct: Bought from R&D Systems; Held on the plate by protein A; also called SIGLEC 7; not shown: Fc part of the bought fusion protein

[3] = target: T3, Recombinant SIG-9 Fc-fusion protein (R&D Systems) (human, UniProt Q9Y336 18-348); assay: as above
T3 construct: Bought from R&D Systems; Held on the plate by protein A; also called SIGLEC 9; not shown: Fc part of the bought fusion protein

[4] = target: B2; assay: as above
[5] = target: B3; assay: ELISA: SIGLEC-Fc captured on a protein A plate (500 ng/well), biotinylated cluster fragment at 4 µg/mL, streptavidin-HRP, A492, single concentration; sheet says Siglec 8, legend says SIG-F
[6] = target: T4, Plasma derived VWF (pdVWF), biotinylated (human, UniProt P04275 764-2813, biotinylated with EZ-Link Sulfo-NHS-Biotin; natural N- and O-glycans of plasma vWF); assay: ELISA: SIGLEC-Fc captured on a protein A plate (500 ng/well), biotinylated plasma derived vWF 0-0.8 µg/mL, streptavidin-HRP, A492
T4 construct: Plasma-derived multimeric glycoprotein; also called von Willebrand factor; full length vWF

[7] = target: T5, Seq11 (recombinant vWF fragment AA 1-505 of SEQ ID NO: 1 with C-terminal Strep-Tag, from HEK 293) (human, UniProt P04275 764-1268, four O-glycosylation sites 485, 492, 493, 500 occupied (core 1, core 2 and/or extended core 1, sialylated)); assay: SIGLEC ELISA, Scatchard analysis of the binding curve (apparent KD); printed SIGLEC 8, ELISA done as in Examples 8 and 9 with SIG-F
T5 construct: Expressed in HEK293 / MEXi-293 cells, purified on Strep-Tactin; not shown: C-terminal Twin-Strep-tag of the pDSG vector (IBA)

[8] = target: T6, vWF C-terminal fragment (V8 protease digest of plasma derived vWF) (human, UniProt P04275 2129-2813, biotinylated with EZ-Link Sulfo-NHS-Biotin); assay: ELISA: SIGLEC-Fc captured on a protein A plate (500 ng/well), biotinylated vWF fragment at 1 µg/mL, streptavidin-HRP, A492, single concentration; sheet says Siglec 8, legend says SIG-F
T6 construct: the real molecule is only its C-terminal part; also called C-terminal vWF fragment
T6 sequence (P04275 2129-2813 limits assumed): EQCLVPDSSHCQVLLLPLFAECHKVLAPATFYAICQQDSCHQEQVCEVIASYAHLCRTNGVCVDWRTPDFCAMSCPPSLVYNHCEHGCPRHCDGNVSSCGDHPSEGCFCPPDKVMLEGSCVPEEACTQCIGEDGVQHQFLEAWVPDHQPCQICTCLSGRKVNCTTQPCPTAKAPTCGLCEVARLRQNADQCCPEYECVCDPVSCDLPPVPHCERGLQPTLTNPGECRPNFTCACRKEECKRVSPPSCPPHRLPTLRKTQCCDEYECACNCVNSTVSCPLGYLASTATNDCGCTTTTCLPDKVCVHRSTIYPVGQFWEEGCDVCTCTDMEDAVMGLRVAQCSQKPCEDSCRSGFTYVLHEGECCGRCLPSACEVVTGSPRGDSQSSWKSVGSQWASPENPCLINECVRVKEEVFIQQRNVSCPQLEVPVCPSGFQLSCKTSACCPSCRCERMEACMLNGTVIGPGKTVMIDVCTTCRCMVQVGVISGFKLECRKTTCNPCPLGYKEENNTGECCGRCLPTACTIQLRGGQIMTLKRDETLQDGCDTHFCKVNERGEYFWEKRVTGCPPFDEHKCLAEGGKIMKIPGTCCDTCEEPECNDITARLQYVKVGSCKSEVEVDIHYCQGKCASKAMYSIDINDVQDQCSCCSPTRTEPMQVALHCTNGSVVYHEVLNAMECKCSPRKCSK

T2 sequence (Q9Y286 19-357 limits assumed): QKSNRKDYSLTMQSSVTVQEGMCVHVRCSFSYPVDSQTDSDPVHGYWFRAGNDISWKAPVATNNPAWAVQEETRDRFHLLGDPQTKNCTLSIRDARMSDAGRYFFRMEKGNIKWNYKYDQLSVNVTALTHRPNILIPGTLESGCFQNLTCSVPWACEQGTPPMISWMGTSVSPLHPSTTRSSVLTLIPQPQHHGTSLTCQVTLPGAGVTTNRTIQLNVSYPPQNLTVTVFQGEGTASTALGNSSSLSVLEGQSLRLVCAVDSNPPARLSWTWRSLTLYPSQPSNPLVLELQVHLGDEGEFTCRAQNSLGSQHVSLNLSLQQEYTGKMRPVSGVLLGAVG
T5 sequence (P04275 764-1268): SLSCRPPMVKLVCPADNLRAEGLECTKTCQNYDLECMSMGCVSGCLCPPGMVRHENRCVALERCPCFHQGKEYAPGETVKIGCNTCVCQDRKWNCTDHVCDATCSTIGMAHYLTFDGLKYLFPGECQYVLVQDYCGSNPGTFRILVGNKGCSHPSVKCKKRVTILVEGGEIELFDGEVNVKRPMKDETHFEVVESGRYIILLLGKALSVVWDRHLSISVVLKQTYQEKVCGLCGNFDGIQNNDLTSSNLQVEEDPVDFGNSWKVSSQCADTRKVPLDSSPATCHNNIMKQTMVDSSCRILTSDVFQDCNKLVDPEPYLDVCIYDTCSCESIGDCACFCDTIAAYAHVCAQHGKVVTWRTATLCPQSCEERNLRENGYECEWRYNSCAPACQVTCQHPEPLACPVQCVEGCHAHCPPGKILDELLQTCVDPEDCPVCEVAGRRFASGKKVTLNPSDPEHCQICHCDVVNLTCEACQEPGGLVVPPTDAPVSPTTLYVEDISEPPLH
T4 sequence (P04275 764-2813 limits assumed): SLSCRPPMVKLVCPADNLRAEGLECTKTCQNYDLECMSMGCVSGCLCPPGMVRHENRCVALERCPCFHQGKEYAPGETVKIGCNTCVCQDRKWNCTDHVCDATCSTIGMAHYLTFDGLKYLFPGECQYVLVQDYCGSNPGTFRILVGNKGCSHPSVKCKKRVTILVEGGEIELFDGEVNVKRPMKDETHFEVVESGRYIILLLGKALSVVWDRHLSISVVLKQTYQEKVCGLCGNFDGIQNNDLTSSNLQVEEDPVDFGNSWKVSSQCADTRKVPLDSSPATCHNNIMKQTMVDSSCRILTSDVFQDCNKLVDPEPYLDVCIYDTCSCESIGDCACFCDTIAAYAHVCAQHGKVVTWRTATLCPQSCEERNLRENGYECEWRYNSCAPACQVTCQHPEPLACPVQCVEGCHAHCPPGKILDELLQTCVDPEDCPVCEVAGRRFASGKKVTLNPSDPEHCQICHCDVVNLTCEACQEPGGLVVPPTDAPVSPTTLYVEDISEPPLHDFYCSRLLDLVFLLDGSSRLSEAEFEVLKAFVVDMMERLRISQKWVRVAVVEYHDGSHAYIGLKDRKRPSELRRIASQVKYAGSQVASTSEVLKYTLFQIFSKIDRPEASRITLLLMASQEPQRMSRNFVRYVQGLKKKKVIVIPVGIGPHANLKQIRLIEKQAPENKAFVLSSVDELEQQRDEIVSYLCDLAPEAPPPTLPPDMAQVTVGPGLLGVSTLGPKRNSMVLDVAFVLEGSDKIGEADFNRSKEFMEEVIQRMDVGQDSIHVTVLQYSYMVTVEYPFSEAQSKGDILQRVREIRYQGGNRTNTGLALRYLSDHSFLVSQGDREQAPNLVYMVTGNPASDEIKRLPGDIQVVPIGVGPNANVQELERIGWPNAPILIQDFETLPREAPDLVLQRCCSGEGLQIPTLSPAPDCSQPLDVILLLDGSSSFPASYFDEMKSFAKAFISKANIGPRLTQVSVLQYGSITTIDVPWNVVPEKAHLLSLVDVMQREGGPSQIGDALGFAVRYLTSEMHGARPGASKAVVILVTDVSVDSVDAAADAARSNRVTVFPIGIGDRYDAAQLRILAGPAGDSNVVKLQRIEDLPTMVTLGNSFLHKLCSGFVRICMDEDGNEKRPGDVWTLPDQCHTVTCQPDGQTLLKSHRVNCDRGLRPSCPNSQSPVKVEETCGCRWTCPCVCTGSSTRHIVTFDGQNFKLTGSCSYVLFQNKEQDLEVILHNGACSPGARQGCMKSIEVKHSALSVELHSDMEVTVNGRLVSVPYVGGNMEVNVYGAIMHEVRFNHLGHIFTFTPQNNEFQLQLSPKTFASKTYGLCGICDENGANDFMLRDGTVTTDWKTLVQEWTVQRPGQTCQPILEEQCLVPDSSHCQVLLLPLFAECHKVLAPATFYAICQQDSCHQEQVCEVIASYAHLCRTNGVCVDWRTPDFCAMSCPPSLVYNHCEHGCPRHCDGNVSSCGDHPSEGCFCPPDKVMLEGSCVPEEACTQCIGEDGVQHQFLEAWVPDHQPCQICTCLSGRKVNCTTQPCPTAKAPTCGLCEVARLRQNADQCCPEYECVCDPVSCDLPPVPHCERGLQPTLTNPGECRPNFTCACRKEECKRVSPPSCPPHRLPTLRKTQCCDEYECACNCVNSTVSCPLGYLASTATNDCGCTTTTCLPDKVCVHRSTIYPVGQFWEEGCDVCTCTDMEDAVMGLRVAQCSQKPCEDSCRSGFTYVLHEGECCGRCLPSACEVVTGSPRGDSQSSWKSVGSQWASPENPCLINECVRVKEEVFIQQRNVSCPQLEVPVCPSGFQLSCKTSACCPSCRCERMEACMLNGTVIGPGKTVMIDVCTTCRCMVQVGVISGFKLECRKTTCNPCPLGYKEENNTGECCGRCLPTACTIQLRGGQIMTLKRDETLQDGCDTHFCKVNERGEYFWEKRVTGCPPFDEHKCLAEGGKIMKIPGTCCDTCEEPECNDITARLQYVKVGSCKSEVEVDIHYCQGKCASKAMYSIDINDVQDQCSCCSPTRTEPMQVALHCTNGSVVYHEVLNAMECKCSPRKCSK
T3 sequence (Q9Y336 18-348 limits assumed): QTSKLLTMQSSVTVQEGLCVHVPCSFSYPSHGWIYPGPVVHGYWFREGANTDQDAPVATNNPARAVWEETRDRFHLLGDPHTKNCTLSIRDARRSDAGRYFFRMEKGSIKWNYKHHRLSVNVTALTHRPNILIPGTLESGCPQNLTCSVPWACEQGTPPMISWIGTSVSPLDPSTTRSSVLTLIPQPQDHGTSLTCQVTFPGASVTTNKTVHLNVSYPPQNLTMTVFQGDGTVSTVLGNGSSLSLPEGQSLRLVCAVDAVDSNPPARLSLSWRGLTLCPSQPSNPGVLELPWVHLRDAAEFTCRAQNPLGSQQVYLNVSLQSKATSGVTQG

B1: no binding (tested: 4 µg/mL) [1]; no binding (tested: 4 µg/mL) [2]; no binding (tested: 4 µg/mL) [3]. B1: no binding (tested: 4 µg/mL) [4]; no binding (tested: 4 µg/mL) [5].

B2: no binding (tested: 0.8 µg/mL) [6].

In the case of B3, the Kd [7] is reported as 1030 nM and the binding result [8] is reported as “no binding (tested: 1 µg/mL)”.
